What follows are substances tested against human Toll-like receptor 5 (hTLR5) on HEK-Blue hTLR5 cells (human) (UniProt O60602).
Sequence of UniProt O60602 (O60602 21-858): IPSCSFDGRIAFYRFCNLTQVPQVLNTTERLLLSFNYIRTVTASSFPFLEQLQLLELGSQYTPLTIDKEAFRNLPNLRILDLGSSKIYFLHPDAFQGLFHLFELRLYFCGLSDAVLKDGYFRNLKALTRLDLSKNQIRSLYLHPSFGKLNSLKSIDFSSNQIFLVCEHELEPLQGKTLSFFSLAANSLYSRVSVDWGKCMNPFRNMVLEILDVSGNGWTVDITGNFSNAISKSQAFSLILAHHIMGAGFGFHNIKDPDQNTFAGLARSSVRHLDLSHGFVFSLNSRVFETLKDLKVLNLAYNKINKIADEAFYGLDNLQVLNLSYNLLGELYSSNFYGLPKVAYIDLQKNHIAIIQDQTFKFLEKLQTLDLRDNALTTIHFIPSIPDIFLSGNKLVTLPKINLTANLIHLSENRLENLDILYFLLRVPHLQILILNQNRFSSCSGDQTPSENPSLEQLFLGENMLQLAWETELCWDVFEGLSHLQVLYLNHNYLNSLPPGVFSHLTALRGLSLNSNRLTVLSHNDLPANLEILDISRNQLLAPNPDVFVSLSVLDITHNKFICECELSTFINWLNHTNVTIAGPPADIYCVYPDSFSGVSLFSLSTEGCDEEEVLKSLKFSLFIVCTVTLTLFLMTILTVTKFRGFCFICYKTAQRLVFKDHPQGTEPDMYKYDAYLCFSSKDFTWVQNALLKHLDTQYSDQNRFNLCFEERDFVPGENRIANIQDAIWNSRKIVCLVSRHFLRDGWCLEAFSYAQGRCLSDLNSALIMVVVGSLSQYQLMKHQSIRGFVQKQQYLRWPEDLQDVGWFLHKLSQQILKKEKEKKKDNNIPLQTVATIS

Question: “D2D3 domain-depleted FlaB (FlaB^ΔD2D3) (natural protein)” was tested. Which EC50 of TLR5-dependent NF-κB activation in HEK-Blue hTLR5 cells (OD 620; 0.03719 nM to 76.16 nM protein) did it give?
Answer: The EC50 of TLR5-dependent NF-κB activation in HEK-Blue hTLR5 cells (OD 620; 0.03719 nM to 76.16 nM protein) was 13.2 nM.

Question: Which EC50 of TLR5-dependent NF-κB activation in HEK-Blue hTLR5 cells (OD 620; 0.03719 nM to 76.16 nM protein) does the source give for “Vibrio vulnificus flagellin B (FlaB), wild type recombinant (natural protein)” here?
Answer: The EC50 of TLR5-dependent NF-κB activation in HEK-Blue hTLR5 cells (OD 620; 0.03719 nM to 76.16 nM protein) was 4.18 nM.

Question: “deimmunized FlaB (dFlaB), FlaB lacking residues 175-193 (natural protein)” was tested. Which EC50 of TLR5-dependent NF-κB activation in HEK-Blue hTLR5 cells (OD 620; 0.03719 nM to 76.16 nM protein) did it give?
Answer: The EC50 of TLR5-dependent NF-κB activation in HEK-Blue hTLR5 cells (OD 620; 0.03719 nM to 76.16 nM protein) was 9.01 nM.
